Data on 167 variants can be found in the RNAGym collection of RNA variant scans (doi:10.7554/elife.90254).

B1: OR4K15 (parent)
chain: GUUAACGGUCAUAGGCCAUGGAAACUAGGAGCACCAUUUCGCUGCCAGUGAAGAAAUGAACAAAGAAAAUCUGGGCCAGGCAGGCAUCAAAAGAAAUAGUCUUGCGCUCAACCAGAAAGUCUGUAAUCAUUUUAAGGGUA

This data set covers variants of B1. Kind of data set: self-cleavage, relative activity (ratio to wild type); higher = more cleavage; in vitro, sequencing; the parent is a self-cleaving ribozyme.
Regarding A60C U122A, the self-cleavage is 1.74. Next, U57C U108C: 0.01; A60G G106A: 0.02. For U57C A86U, the self-cleavage worked out at 1.93. A59G A117U: the self-cleavage stood at 0.95. For G58U, the self-cleavage was determined as 1.43. As for G58A, the figure is 1.13; as for A60C A89C, 1.8. Next, A59C A140U: 1.46. For the variant U57G A78U, the self-cleavage was determined as 0.22.

With U57C A117C, the self-cleavage is 0.7.

Consider U57G A126G, for which the self-cleavage came out at 0.52. Regarding A59G A63G, the self-cleavage came out at 1.4. In the case of C61U A110G, the self-cleavage worked out at 0.11.

In the case of A60G A69U, the self-cleavage amounted to 1.67. For the variant A60U A78G, the self-cleavage came out at 0.23. A59G A89U: the self-cleavage was determined as 0.98.

For the variant A59U A125G, the self-cleavage was 0.43. As for A62G A82G, the figure is 0.49; as for A62G A82U, 0.25; as for A59U A117G, 1.72. In the case of A59U A117U, the self-cleavage was determined as 0.89. A59U U120C: the self-cleavage was found to be 1.78. With C61U A140G, the self-cleavage turned out to be 1.73.

Consider A62G A78C, for which the self-cleavage is 0.37.

As to A62G A78U, the self-cleavage is 0.19. Next, U57C A118G: 0.43; U57C A118U: 0.37. U57C A94G: the self-cleavage was 1.62. Consider G58A A96G, for which the self-cleavage came out at 1.84. Next, A60U U120C: 0.7; A60U C128U: 0.44; A59G A125G: 0.4.

In the case of A60C C71U, the self-cleavage was determined as 0.04. For the variant A60U A111G, the self-cleavage was found to be 0.05.

Regarding A60G G83A, the self-cleavage turned out to be 1.3.

Regarding A60U U124C, the self-cleavage was found to be 0.94.

With A60G A110C, the self-cleavage turned out to be 0.4.

Turning to U57A A125U, the self-cleavage was 1.1. Next, A60G G79U: 0.08; A59U U131A: 0.84; A60U A66G: 1.63.

As for G58A U132C, the self-cleavage was determined as 1.64. For G58U U102C, the self-cleavage is 1.68.

For A62C U122C, the self-cleavage came to 1.33. On to A60G C113U, for which the self-cleavage stood at 0.09.

Consider A62C U72C, for which the self-cleavage was 0.26. As for U57C A135G, the figure is 1.34.

Consider C61U A89G, for which the self-cleavage came out at 1.62.

Turning to C61U A86G, the self-cleavage turned out to be 1.72.

Consider A59U A135G, for which the self-cleavage was found to be 1.33. With U57A U132A, the self-cleavage was 0.7. As to U57C G73A, the self-cleavage is 0.15. As for U57C G84A, the figure is 1.76. As for U57C U102A, the figure is 0.48; as for U57C U102G, 0.29. With U57C U102C, the self-cleavage is 1.38. Next, G58A A60G: 1.51.

For G58A A117G, the self-cleavage was found to be 1.66. Regarding A60U G106C, the self-cleavage turned out to be 0.

For A60U G106A, the self-cleavage turned out to be 0.

A60U A114G: the self-cleavage was 0.58. In the case of U57C U100C, the self-cleavage was 1.83. As for A60C A95G, the self-cleavage stood at 1.47. For the variant A59U A60G, the self-cleavage is 1.32. Next, C61U U120A: 2.02.

With A59G A94G, the self-cleavage stood at 0.79. On to A60G U132C, for which the self-cleavage is 1.07. A59G C101A: the self-cleavage is 0.13. Take U57G A129U: the self-cleavage was determined as 1.78. On to A60G A68C, for which the self-cleavage amounted to 1.57.

As to G58U A111G, the self-cleavage was determined as 0.02.

As to A62C A91G, the self-cleavage amounted to 1.31.

Consider U57A U102C, for which the self-cleavage came to 0.78. As for A60U A82G, the figure is 0.66; as for A60U A82U, 0.45; as for C61U A62G, 1.65. With A60G A129U, the self-cleavage turned out to be 1.14. Next, U57G A68G: 1.53; U57C U97A: 1.32; A59G U122C: 1.1. As for U57C A68G, the figure is 0.95.

Consider U57C G75A, for which the self-cleavage was 0.12. As for U57C G75C, the figure is 0.17; as for U57A U127A, 1.95; as for U57A U127C, 0.65. On to U57C U87C, for which the self-cleavage is 0.63. Next, A59G A78G: 0.26; A59C A60G: 0.56. As for A59U C61U, the figure is 1.53; as for A62G A67C, 1.96; as for A62G A67G, 0.96. Next, A62G A67U: 1.82. As to A60G U120C, the self-cleavage is 0.82.

On to A60G U120A, for which the self-cleavage is 1.93.

For the variant A60G U108C, the self-cleavage is 0.03. For A60G U108A, the self-cleavage is 0.02. For A60G C76U, the self-cleavage amounted to 0.13.

Regarding A60U U122A, the self-cleavage was determined as 2.08. As to A59G C121A, the self-cleavage was 2.81. Next, A62G A64U: 1.23; A60G C107U: 0; C61U A98U: 2.63. As for A60C A96G, the figure is 1.77. For A59G G80U, the self-cleavage amounted to 0.26. Turning to A59U U108A, the self-cleavage was 0.02. For A60G A125U, the self-cleavage is 2.64. Next, G58U U124C: 0.25; C61U A64U: 0.27.

A62G A86G: the self-cleavage worked out at 1.4.

On to U57A U133C, for which the self-cleavage was 1.08. Next, A60U A63G: 0.71; A60G A135U: 1.41; U57C U124C: 0.59.

For U57C U124G, the self-cleavage was 0.94.

A59G U103A: the self-cleavage worked out at 0.62. Regarding A59G A60U, the self-cleavage came out at 2.03.

As for A59G A60G, the self-cleavage turned out to be 0.59. Next, U57A G106A: 0.01. As for G58A A67G, the figure is 0.36. As for A59G A129G, the figure is 1.16; as for U57C C105U, 0.15. Take U57C U132C: the self-cleavage amounted to 0.52. As for A62C A125G, the figure is 0.58; as for A60G A95C, 1.

In the case of A60G A95G, the self-cleavage was determined as 1.63. Next, A60G A95U: 0.97; A60U A94G: 1.5.

Consider U57A G123C, for which the self-cleavage worked out at 1.58. As for U57A U70C, the figure is 0.48; as for A59C A68G, 2.1; as for A60G A94G, 1.37.

With U57C A140G, the self-cleavage worked out at 1.11. Next, A60G U100A: 0.52. As for C61A A91C, the figure is 2.41. For G58U A64G, the self-cleavage turned out to be 1.2.

Take A60G A90G: the self-cleavage is 0.4.

For the variant A60G A90U, the self-cleavage amounted to 1.84.

For the variant C61U A91G, the self-cleavage was 0.87.

Turning to C61U A91U, the self-cleavage was determined as 1.73. As for A62C A111G, the figure is 0.03.

Regarding A62C A118G, the self-cleavage is 1.46. As for U57C C88U, the figure is 1.04. Regarding G58U A68G, the self-cleavage worked out at 0.92. With U57C U122A, the self-cleavage amounted to 1.35. Consider U57C U122C, for which the self-cleavage stood at 0.84. Turning to U57C A114U, the self-cleavage came out at 0.05. Next, U57C A114C: 0.04. As for A60U U133C, the figure is 2.17.

For U57A G136A, the self-cleavage was 1.37. With A62C U132C, the self-cleavage was 1.25.

On to G58A U130C, for which the self-cleavage came out at 0.82. Next, A59U A69G: 1.51. Next, A59G C71A: 0.48. C61U U87C: the self-cleavage was determined as 1.35.

For the variant A59G C85U, the self-cleavage came out at 0.51. Next, A62C U120C: 0.93. In the case of U57G A64G, the self-cleavage is 0.9.

For the variant A59G A62U, the self-cleavage turned out to be 1.32. Take A59G A62G: the self-cleavage was determined as 1.27.

Turning to A59G G73A, the self-cleavage turned out to be 0.17.

For A59G U72C, the self-cleavage stood at 0.23. As to A60C G123A, the self-cleavage was found to be 1.98. As for A59U A134U, the figure is 1.92; as for A59U A111U, 0.13. As for A59U A111G, the figure is 0.02; as for A60G A78U, 0.35.
